The record followed here is PMC11519604, “TOX2 nuclear-cytosol translocation is linked to leukemogenesis of acute T-cell leukemia by repressing TIM3 transcription” (Cell Death and Differentiation, 2024).

This data set deals with the molecule itself. Nature of the data set: not stated; HEK293T cells with forced expression or knockdown of TOX and TOX2; bands told by apparent size (Supplementary Fig. 3B).

B1: TOX-Flag (full-length TOX) (natural protein, UniProt O94900 1-526, looked up)
chain: MDVRFYPPPAQPAAAPDAPCLGPSPCLDPYYCNKFDGENMYMSMTEPSQDYVPASQSYPGPSLESEDFNIPPITPPSLPDHSLVHLNEVESGYHSLCHPMNHNGLLPFHPQNMDLPEITVSNMLGQDGTLLSNSISVMPDIRNPEGTQYSSHPQMAAMRPRGQPADIRQQPGMMPHGQLTTINQSQLSAQLGLNMGGSNVPHNSPSPPGSKSATPSPSSSVHEDEGDDTSKINGGEKRPASDMGKKPKTPKKKKKKDPNEPQKPVSAYALFFRDTQAAIKGQNPNATFGEVSKIVASMWDGLGEEQKQVYKKKTEAAKKEYLKQLAAYRASLVSKSYSEPVDVKTSQPPQLINSKPSVFHGPSQAHSALYLSSHYHQQPGMNPHLTAMHPSLPRNIAPKPNNQMPVTVSIANMAVSPPPPLQISPPLHQHLNMQQHQPLTMQQPLGNQLPMQVQSALHSPTMQQGFTLQPDYQTIINPTSTAAQVVTQAMEYVRSGCRNPPPQPVDWNNDYCSSGGMQRDKALYLT
notes: TOX, full length (526 residues by the printed limits of TOX(C) 257-526), in pCDH vector; Both are written as this one molecule; source: HEK293T, transfected, in lysate; not shown: Flag, C-terminal, kept
Turning to B1, the stoichiometry N (as a rule, the number of molecules, sites or subunits per partner or assembly) came out at 2.
